Assay results as given in paper PMC6104738.

Biological target: EBOV GP [change] (residues 1-636; strain Makona) (Zaire ebolavirus (EBOV), strain Makona)
Test: negative-stain electron microscopy; purified EBOV GP ΔTM alone

In the case of “EBOV GP [change] (residues 1-636; strain Makona) (domain or fragment)”, the stoichiometry N is reported as 3.
